Results published in the supplement of paper PMC5998384.

How the values were obtained:
HeLa Kyoto [1] = test: thermal stability score vs G1/S (z-score of summed log2 fold changes over temperatures); higher = more thermally stable than in G1/S
HeLa Kyoto [2] = test: melting temperature (median over replicates), in situ; higher = more thermally stable
HeLa Kyoto [3] = test: solubility change mitosis vs G1/S (difference of NP-40 vs SDS log2 ratios) (log2 ratio difference); higher = more soluble in mitosis
HeLa Kyoto [4] = test: solubility in G1/S (NP-40 vs SDS abundance) (log2 ratio); higher = more soluble; conditions: cell cycle stage: G1/S
[5] = cell cycle stage: early G1 (4.5 h after nocodazole release)
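Throughout, for melting temperature (median over replicates), in situ: HeLa Kyoto cells synchronized by double thymidine or nocodazole block, proteins quantified by TMT10plex mass spectrometry, three independent biological replicates.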
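Throughout, for solubility change mitosis vs G1/S (difference of NP-40 vs SDS log2 ratios): synchronized HeLa Kyoto cells (double thymidine block for G1/S, nocodazole release for mitosis), protein amounts in NP-40 versus SDS lysates quantified by mass spectrometry, three biological replicates.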
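Throughout, for solubility in G1/S (NP-40 vs SDS abundance): HeLa Kyoto cells arrested at G1/S by double thymidine block, proteins quantified by TMT10plex mass spectrometry in mild NP-40 versus SDS extracts, three biological replicates.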
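Throughout, for thermal stability score vs G1/S (z-score of summed log2 fold changes over temperatures): synchronized HeLa Kyoto cells, proteins quantified by TMT10plex mass spectrometry, three biological replicates, mitosis taken 0.5 h after nocodazole release, G1/S directly after double thymidine block.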

Sequence	thermal stability score (HeLa Kyoto [1]; [5])	thermal stability score (HeLa Kyoto [1]; cell cycle stage: mitosis)	melting temperature (HeLa Kyoto [2]; cell cycle stage: G1/S)	melting temperature (HeLa Kyoto [2]; cell cycle stage: mitosis)	solubility change mitosis (log2) (HeLa Kyoto [3])	solubility in G1/S (log2) (HeLa Kyoto [4])
MEKTLETVPLERKKREKEQFRKLFIGGLSFETTEESLRNYYEQWGKLTDCVVMRDPASKRSRGFGFVTFSSMAEVDAAMAARPHSIDGRVVEPKRAVAREESGKPGAHVTVKKLFVGGIKEDTEEHHLRDYFEEYGKIDTIEIITDRQSGKKRGFGFVTFDDHDPVDKIVLQKYHTINGHNAEVRKALSRQEMQEVQSSRSGRGGNFGFGDSRGGGGNFGPGPGSNFRGGSDGYGSGRGFGDGYNGYGGGPGGGNFGGSPGYGGGRGGYGGGGPGYGNQGGGYGGGYDNYGGGNYGSGNYNDFGNYNQQPSNYGPMKSGNFGGSRNMGGPYGGGNYGPGGSGGSGGYGGRSRY [HNRNPA2B1]	5.29	6.68	48.1 °C	49 °C	0.321	-0.087
MATAATIPSVATATAAALGEVEDEGLLASLFRDRFPEAQWRERPDVGRYLRELSGSGLERLRREPERLAEERAQLLQQTRDLAFANYKTFIRGAECTERIHRLFGDVEASLGRLLDRLPSFQQSCRNFVKEAEEISSNRRMNSLTLNRHTEILEILEIPQLMDTCVRNSYYEEALELAAYVRRLERKYSSIPVIQGIVNEVRQSMQLMLSQLIQQLRTNIQLPACLRVIGYLRRMDVFTEAELRVKFLQARDAWLRSILTAIPNDDPYFHITKTIEASRVHLFDIITQYRAIFSDEDPLLPPAMGEHTVNESAIFHGWVLQKVSQFLQVLETDLYRGIGGHLDSLLGQCMYFGLSFSRVGADFRGQLAPVFQRVAISTFQKAIQETVEKFQEEMNSYMLISAPAILGTSNMPAAVPATQPGTLQPPMVLLDFPPLACFLNNILVAFNDLRLCCPVALAQDVTGALEDALAKVTKIILAFHRAEEAAFSSGEQELFVQFCTVFLEDLVPYLNRCLQVLFPPAQIAQTLGIPPTQLSKYGNLGHVNIGAIQEPLAFILPKRETLFTLDDQALGPELTAPAPEPPAEEPRLEPAGPACPEGGRAETQAEPPSVGP [COG8]	0.73	1.67	50.6 °C	48.4 °C	-0.112	-0.00808
MAFANLRKVLISDSLDPCCRKILQDGGLQVVEKQNLSKEELIAELQDCEGLIVRSATKVTADVINAAEKLQVVGRAGTGVDNVDLEAATRKGILVMNTPNGNSLSAAELTCGMIMCLARQIPQATASMKDGKWERKKFMGTELNGKTLGILGLGRIGREVATRMQSFGMKTIGYDPIISPEVSASFGVQQLPLEEIWPLCDFITVHTPLLPSTTGLLNDNTFAQCKKGVRVVNCARGGIVDEGALLRALQSGQCAGAALDVFTEEPPRDRALVDHENVISCPHLGASTKEAQSRCGEEIAVQFVDMVKGKSLTGVVNAQALTSAFSPHTKPWIGLAEALGTLMRAWAGSPKGTIQVITQGTSLKNAGNCLSPAVIVGLLKEASKQADVNLVNAKLLVKEAGLNVTTSHSPAAPGEQGFGECLLAVALAGAPYQAVGLVQGTTPVLQGLNGAVFRPEVPLRRDLPLLLFRTQTSDPAMLPTMIGLLAEAGVRLLSYQTSLVSDGETWHVMGISSLLPSLEAWKQHVTEAFQFHF [PHGDH]	-2.03	-1.42	55.9 °C	55.4 °C	0.0444	0.233
MKVNRETKRLYVGGLSQDISEADLQNQFSRFGEVSDVEIITRKDDQGNPQKVFAYINISVAEADLKKCMSVLNKTKWKGGTLQIQLAKESFLHRLAQEREAAKAKKEESTTGNANLLEKTGGVDFHMKAVPGTEVPGHKNWVVSKFGRVLPVLHLKNQHKRKIIKYDPSKYCHNLKKIGEDFSNTIPISSLTWELEGGNDPMSKKRRGEFSDFHGPPKKIIKVQKDESSTGSLAMSTRPRRVIERPPLTQQQAAQKRTCDSITPSKSSPVPVSDTQKLKNLPFKTSGLETAKKRNSISDDDTDSEDELRMMIAKEENLQRTTQPSINESESDPFEVVRDDFKSGVHKLHSLIGLGIKNRVSCHDSDDDIMRNDREYDSGDTDEIIAMKKNVAKVKNSTEFSQMEKSTKKTSFKNRENCELSDHCIKLQKRKSNVESALSHGLKSLNRKSPSHSSSSEDADSASELADSEGGEEYNAMMKNCLRVNLTLADLEQLAGSDLKVPNEDTKSDGPETTTQCKFDRGSKSPKTPTGLRRGRQCIRPAEIVASLLEGEENTCGKQKPKENNLKPKFQAFKGVGCLYEKESMKKSLKDSVASNNKDQNSMKHEDPSIISMEDGSPYVNGSLGEVTPCQHAKKANGPNYIQPQKRQTTFESQDRKAVSPSSSEKRSKNPISRPLEGKKSLSLSAKTHNIGFDKDSCHSTTKTEASQEERSDSSGLTSLKKSPKVSSKDTREIKTDFSLSISNSSDVSAKDKHAEDNEKRLAALEARQKAKEVQKKLVHNALANLDGHPEDKPTHIIFGSDSECETEETSTQEQSHPGEEWVKESMGKTSGKLFDSSDDDESDSEDDSNRFKIKPQFEGRAGQKLMDLQSHFGTDDRFRMDSRFLETDSEEEQEEVNEKKTAEEEELAEEKKKALNVVQSVLQINLSNSTNRGSVAAKKFKDIIHYDPTKQDHATYERKRDDKPKESKAKRKKKREEAEKLPEVSKEMYYNIAMDLKEIFQTTKYTSEKEEGTPWNEDCGKEKPEEIQDPAALTSDAEQPSGFTFSFFDSDTKDIKEETYRVETVKPGKIVWQEDPRLQDSSSEEEDVTEETDHRNSSPGEASLLEKETTRFFFFSKNDERLQGSDLFWRGVGSNMSRNSWEARTTNLRMDCRKKHKDAKRKMKPK [NOL8]	1.32	2.26	51.3 °C	51.3 °C	1.08	-1.85
MMCEVMPTISEAEGPPGGGGGHGSGSPSQPDADSHFEQLMVSMLEERDRLLDTLRETQETLALTQGKLHEVGHERDSLQRQLNTALPQEFAALTKELNVCREQLLEREEEIAELKAERNNTRLLLEHLECLVSRHERSLRMTVVKRQAQSPAGVSSEVEVLKALKSLFEHHKALDEKVRERLRVALERCSLLEEELGATHKELMILKEQNNQKKTLTDGVLDINHEQENTPSTSGKRSSDGSLSHEEDLAKVIELQEIISKQSREQSQMKERLASLSSHVTELEEDLDTARKDLIKSEEMNTKLQRDVREAMAQKEDMEERITTLEKRYLAAQREATSVHDLNDKLENEIANKDSMHRQTEDKNRQLQERLELAEQKLQQTLRKAETLPEVEAELAQRVAALSKAEERHGNIEERLRQMEAQLEEKNQELQRARQREKMNEEHNKRLSDTVDKLLSESNERLQLHLKERMAALEDKNSLLREVESAKKQLEETQHDKDQLVLNIEALRAELDHMRLRGASLHHGRPHLGSVPDFRFPMADGHTDSYSTSAVLRRPQKGRLAALRDEPSKVQTLNEQDWERAQQASVLANVAQAFESDADVSDGEDDRDTLLSSVDLLSPSGQADAHTLAMMLQEQLDAINKEIRLIQEEKENTEQRAEEIESRVGSGSLDNLGRFRSMSSIPPYPASSLASSSPPGSGRSTPRRIPHSPAREVDRLGVMTLLPPSREEVRDDKTTIKCETSPPSSPRALRLDRLHKGALHTVSHEDIRDIRNSTGSQDGPVSNPSSSNSSQDSLHKAPKKKGIKSSIGRLFGKKEKGRPGQTGKEALGQAGVSETDNSSQDALGLSKLGGQAEKNRKLQKKHELLEEARRQGLPFAQWDGPTVVVWLELWVGMPAWYVAACRANVKSGAIMSALSDTEIQREIGISNPLHRLKLRLAIQEIMSLTSPSAPPTSRTTLAYGDMNHEWIGNEWLPSLGLPQYRSYFMECLVDARMLDHLTKKDLRGQLKMVDSFHRNSFQCGIMCLRRLNYDRKELERKREESQSEIKDVLVWSNDRVIRWILSIGLKEYANNLIESGVHGALLALDETFDFSALALLLQIPTQNTQARAVLEREFNNLLVMGTDRRFDEDDDKSFRRAPSWRKKFRPKDIRGLAAGSAETLPANFRVTSSMSSPSMQPKKMQMDGNVSGTQRLDSATVRTYSC [PPFIA1]	1.52	1.91	49.8 °C	50.2 °C	-0.0196	0.137
MAPRLCSISVTARRLLGGPGPRAGDVASAAAARFYSKDNEGSWFRSLFVHKVDPRKDAHSTLLSKKETSNLYKIQFHNVKPEYLDAYNSLTEAVLPKLHLDEDYPCSLVGNWNTWYGEQDQAVHLWRFSGGYPALMDCMNKLKNNKEYLEFRRERSQMLLSRRNQLLLEFSFWNEPQPRMGPNIYELRTYKLKPGTMIEWGNNWARAIKYRQENQEAVGGFFSQIGELYVVHHLWAYKDLQSREETRNAAWRKRGWDENVYYTVPLVRHMESRIMIPLKISPLQ [NIPSNAP1]	-0.403	-2.28	53.9 °C	54.3 °C	-0.0766	0.0548
MSFLKSFPPPGPAEGLLRQQPDTEAVLNGKGLGTGTLYIAESRLSWLDGSGLGFSLEYPTISLHALSRDRSDCLGEHLYVMVNAKFEEESKEPVADEEEEDSDDDVEPITEFRFVPSDKSALEAMFTAMCECQALHPDPEDEDSDDYDGEEYDVEAHEQGQGDIPTFYTYEEGLSHLTAEGQATLERLEGMLSQSVSSQYNMAGVRTEDSIRDYEDGMEVDTTPTVAGQFEDADVDH [CLNS1A]	-0.798	-0.57	51.7 °C	52.6 °C	0.0376	-0.106
